These results are taken from US6451992.

The subject of this data set is thrombostasin (thrombin inhibitor of Haematobia irritans saliva; tested as whole serotonin-induced saliva).

As to bovine thrombin, the “rates of hydrolysis of chromogenic substrate S238 (2.5-100 µM) by bovine thrombin (250 pM) alone and in the presence of horn fly saliva (equivalent to 2 flies)” value is reported as “it may be a competitive inhibitor, as its effect is diminished when substrate is unlimited (100 µM)”.
